Measurements published in PMC8920075.

Target: Omikron (Botswana, B.1.1.529) RBD (SARS-CoV-2 (Omicron, B.1.1.529)) (UniProt P0DTC2)
Assay: ELISA

## REGN10933 (Casirivimab) (antibody)
  EC50: 39.4 nM
